Our source for the self-cleavage values is the RNAGym collection of RNA variant scans (doi:10.7554/elife.90254).

B1: OR4K15 (parent)
chain: GUUAACGGUCAUAGGCCAUGGAAACUAGGAGCACCAUUUCGCUGCCAGUGAAGAAAUGAACAAAGAAAAUCUGGGCCAGGCAGGCAUCAAAAGAAAUAGUCUUGCGCUCAACCAGAAAGUCUGUAAUCAUUUUAAGGGUA

The variants in the series derive from B1. The series is described as follows: self-cleavage, relative activity (ratio to wild type); higher = more cleavage; in vitro, sequencing; the parent is a self-cleaving ribozyme.
For A47C U131C, the self-cleavage worked out at 0.89.
To A47U A118C belongs 0.48.
For A47G A55G, the self-cleavage was determined as 0.59.
Then A47G A55U, with 0.19; and A47C A96G, with 1.82; and C46U A98G, with 0.74.
For A47U G138A, the self-cleavage was determined as 1.61.
Then A47G A94C, with 1.1.
To G48A A91U belongs 1.71; to G48A U72A, 0.2.
To G48C A51G belongs 0.94; to A47U A140G, 0.91.
Regarding C46U A67G, the self-cleavage was 1.56.
To A47G A86C belongs 1.04; to A47G A86G, 1.25.
Then A47U A91U, with 0.51; and A47U A91G, with 0.88; and G48A A129G, with 1.14.
Then A47U U57C, with 0.75.
In the case of A47U A89G, the self-cleavage came to 0.86.
Then A47U A89U, with 0.95; and C46U U103C, with 1.41.
Then G48A A63G, with 0.93; and A47U C101U, with 0.22.
Then G48A U127A, with 2.28; and G48A A90G, with 0.76.
A47U G84U: the self-cleavage was determined as 0.25.
On to A47U G84A, for which the self-cleavage is 1.13.
In the case of C46A C112U, the self-cleavage was 0.01.
To A47C A92G belongs 0.95.
To A47G A69G belongs 0.93; to A47G A69U, 1.35; to A47U A110G, 0.05.
Then A47U A110C, with 0.13; and A47U A63G, with 0.8.
On to A47U A66G, for which the self-cleavage was 0.99.
To G48A U102C belongs 1.99; to A47G U87A, 1.63.
Then A47U A114G, with 0.21; and A47U A125G, with 0.28.
Then C46U U120C, with 0.15.
On to C46U U72A, for which the self-cleavage is 0.14.
Then A47U A68U, with 0.73; and A47G A91U, with 0.76; and A47C G79A, with 0.14.
Consider A47U C105U, for which the self-cleavage turned out to be 0.14.
Then A47G C81U, with 0.25.
To A47U A52U belongs 1.2; to A47U A52G, 0.81.
Then A47G A140U, with 1.24.
Take A47G U124C: the self-cleavage is 0.32.
Then A47G G106A, with 0; and C46U U132C, with 1.97; and A47G U120C, with 0.48.
Then A47G A114U, with 0.11; and C46U A118U, with 0.76; and A47G U49C, with 0.98.
To A47G U49A belongs 1.06; to C46U G74A, 0.32; to A47G A89G, 1.1.
On to C46A U120C, for which the self-cleavage was 0.87.
To A47G U108A belongs 0.01.
To G48C A55G belongs 1.64; to A47G G84C, 0.24; to A47G A67U, 1.48.
In the case of C46U A96G, the self-cleavage was 2.13.
Then C46U G84A, with 1.72; and A47G A64U, with 1.26.
Regarding A47U A92G, the self-cleavage was found to be 0.84.
For the variant A47U G75A, the self-cleavage worked out at 0.14.
Then C46U A82C, with 0.27; and C46U A82U, with 0.14.
Regarding C46U A82G, the self-cleavage was 0.94.
Take A47C U72A: the self-cleavage was found to be 0.37.
To A47C A64U belongs 1.56; to G48A A98U, 2.56.
With A47G G99A, the self-cleavage was determined as 0.4.
To A47G G99U belongs 0.51.
Then A47G U133C, with 1.99; and A47U A78U, with 0.25; and A47G U70A, with 0.83.
Then A47G A62U, with 1.22.
Regarding A47G A59U, the self-cleavage worked out at 1.56.
To A47U G50A belongs 0.26; to A47U A82C, 0.21.
To A47U A82U belongs 0.17.
In the case of A47U A59G, the self-cleavage turned out to be 0.62.
To A47C A125G belongs 0.42.
To A47G U122A belongs 1.11.
A47G U122C: the self-cleavage amounted to 0.62.
Then A47G U57C, with 0.69; and A47U A134G, with 1.24; and A47G G104A, with 0.05.
As for A47C A59C, the self-cleavage is 1.35.
Then A47U A98C, with 1.44; and A47U A98G, with 0.16.
A47C A60G: the self-cleavage is 1.63.
As for A47U A62G, the self-cleavage was determined as 0.82.
For A47U U130C, the self-cleavage came out at 0.43.
To A47U G115A belongs 0.15; to A47G G75U, 0.16.
Then C46U A55G, with 1.14; and A47U A60C, with 0.14; and A47U A60U, with 0.75.
To A47G U103C belongs 0.34; to A47G A111U, 0.12.
For the variant A47U A86G, the self-cleavage is 0.23.
A47U A51G: the self-cleavage came out at 0.86.
As for A47C A111U, the self-cleavage amounted to 0.07.
Regarding A47U A96G, the self-cleavage was 1.28.
As to A47G A95G, the self-cleavage came to 1.71.
Then A47U A126G, with 0.77; and A47G A110C, with 0.1.
Then A47G A110G, with 0.1; and A47C A54G, with 1.5.
Then A47U A69U, with 1.22; and A47U C77A, with 0.69.
Turning to C46U U100C, the self-cleavage is 2.37.
To A47G U100C belongs 1.85.
To A47C A56G belongs 1.35; to G48A A66U, 1.33; to C46U A47G, 0.79.
For A47U U108A, the self-cleavage came out at 0.01.
For G48A A68G, the self-cleavage worked out at 1.7.
To A47C U97C belongs 0.33.
Then A47G U132A, with 1.55; and C46U C113A, with 0.01; and A47U U102C, with 1.92.
To A47U U120C belongs 0.28; to G48A U70C, 0.31.
For G48A A69G, the self-cleavage came out at 1.49.
Then G48A A56G, with 1.34.
To C46U G138U belongs 1.93.
Then A47U A64G, with 0.61; and A47C A114G, with 0.3.
Regarding C46U U131C, the self-cleavage came to 2.02.
Then A47U U132G, with 0.61; and A47C A110C, with 0.46.
Then A47G A90C, with 1.68; and A47G A90G, with 0.56.
Then A47C A52G, with 0.57; and G48A A95G, with 1.29.
In the case of A47C A55G, the self-cleavage came to 1.43.
To A47U A117G belongs 1.25; to A47U A117U, 0.71; to A47U U127A, 0.24.
To A47U U127C belongs 0.59; to A47G A60U, 1.4; to A47G A126G, 1.
Then C46U A111G, with 0.02; and A47C A90G, with 1.61; and C46U A89U, with 1.71.
Take A47G A56G: the self-cleavage stood at 1.03.
For the variant A47U A111U, the self-cleavage was found to be 0.06.
In the case of G48C A63G, the self-cleavage amounted to 1.45.
Then C46U U102C, with 1.84; and C46U U102A, with 1.59; and C46U A52G, with 1.09.
To A47G A63G belongs 0.44; to A47C A51G, 1.5.
Then A47G A118U, with 0.67.
For the variant C46U A51G, the self-cleavage worked out at 1.42.
Turning to G48A A55G, the self-cleavage is 1.61.
To A47G A92C belongs 0.42; to A47G A92U, 1.18; to A47U U122A, 0.87.
To A47G A117G belongs 1.32.
